Measurements as given in publication PMC3988563 (2014).

Target: Ribosome termination complex (70S ribosomes, fMet-STOP mRNA and fMet-tRNA^fMet) (E. coli)
Assay: with RF3:GDP

koff: 0.08 s⁻¹
B1: Fluorescein-labeled GAQ-RF1 (single-cysteine L82C or A220C) (natural protein)
chain: MKPSIVAKLEALHERHEEVQALLGDAQTIADQERFRALSREYAQLSDVSRSFTDWQQVQEDIETAQMMLDDPEMREMAQDELREAKEKSEQLEQQLQVLLLPKDPDDERNAFLEVRAGTGGDEAALFAGDLFRMYSRYAEARRWRVEIMSASEGEHGGYKEIIAKISGDGVYGRLKFESGGHRVQRVPATESQGRIHTSASTVAVMPELPDAELPDINPCDLRIDTFRSSGAGAQHVNTTDSAIRITHLPTGIVVESQDERSQHKNKAKALSVLGARIHAAEMAKRQQAEASTRRNLLGSGDRSDRNRTYNFPQGRVTDHRINLTLYRLDEVMEGKLDMLIEPIIQEHQADQLAALSEQE
modifications: fluorescein (fluorescein-maleimide) on the introduced cysteine
